One block for each binder: values may come before it.
Columns and labels:
CD142 [1] = target: T1, CD142 (human, UniProt P13726 33-295); test: antibody used for staining of human pancreatic cancer cells (flow cytometry, immunohistochemistry; Example 1); told in words only
T1 construct: whole, on cells

CD66c [2] = target: T2, CD66c (human, UniProt P40199 35-320); test: as above
T2 construct: whole, on cells
T2 sequence (looked up): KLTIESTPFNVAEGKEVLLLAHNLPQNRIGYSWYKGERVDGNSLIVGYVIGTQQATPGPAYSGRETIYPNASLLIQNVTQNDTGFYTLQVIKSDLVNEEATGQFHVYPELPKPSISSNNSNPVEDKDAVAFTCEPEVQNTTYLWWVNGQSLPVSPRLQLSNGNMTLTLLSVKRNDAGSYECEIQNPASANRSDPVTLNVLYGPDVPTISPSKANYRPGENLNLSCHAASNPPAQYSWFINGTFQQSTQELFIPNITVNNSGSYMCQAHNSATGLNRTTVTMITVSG

CD73 [3] = target: T3, CD73 (human, UniProt P21589 27-549); test: scFv as binding domain of a CAR on T cells; told in words only, no direct binding assay
T3 construct: whole, on cells
T3 sequence (looked up): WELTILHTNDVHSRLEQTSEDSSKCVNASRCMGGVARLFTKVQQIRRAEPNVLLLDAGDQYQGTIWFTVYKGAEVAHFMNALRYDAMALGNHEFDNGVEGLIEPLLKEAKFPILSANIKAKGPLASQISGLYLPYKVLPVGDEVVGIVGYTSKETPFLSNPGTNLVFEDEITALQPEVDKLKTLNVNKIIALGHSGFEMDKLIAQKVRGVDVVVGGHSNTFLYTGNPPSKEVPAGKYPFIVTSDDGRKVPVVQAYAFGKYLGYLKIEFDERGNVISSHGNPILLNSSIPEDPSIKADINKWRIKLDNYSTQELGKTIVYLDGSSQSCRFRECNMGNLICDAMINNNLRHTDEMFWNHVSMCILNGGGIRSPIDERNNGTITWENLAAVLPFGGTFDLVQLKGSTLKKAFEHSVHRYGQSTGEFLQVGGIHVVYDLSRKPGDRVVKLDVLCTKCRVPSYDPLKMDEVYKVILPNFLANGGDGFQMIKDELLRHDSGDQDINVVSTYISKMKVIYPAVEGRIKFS

CD66c [4] = target: T2, CD66c; test: as above
TSPAN8 = target: T4, TSPAN8 (human, UniProt P19075 1-237); test: as above
T4 construct: whole, on cells
T4 sequence (looked up): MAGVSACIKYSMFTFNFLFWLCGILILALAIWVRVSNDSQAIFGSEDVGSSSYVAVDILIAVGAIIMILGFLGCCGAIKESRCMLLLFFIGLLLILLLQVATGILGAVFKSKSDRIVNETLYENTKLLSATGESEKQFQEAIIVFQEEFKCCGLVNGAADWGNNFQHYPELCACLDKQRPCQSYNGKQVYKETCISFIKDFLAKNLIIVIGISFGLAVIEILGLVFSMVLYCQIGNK

CD318 = target: T5, CD318 (human, UniProt Q9H5V8 30-836); test: as above
T5 construct: whole, on cells
T5 sequence (looked up): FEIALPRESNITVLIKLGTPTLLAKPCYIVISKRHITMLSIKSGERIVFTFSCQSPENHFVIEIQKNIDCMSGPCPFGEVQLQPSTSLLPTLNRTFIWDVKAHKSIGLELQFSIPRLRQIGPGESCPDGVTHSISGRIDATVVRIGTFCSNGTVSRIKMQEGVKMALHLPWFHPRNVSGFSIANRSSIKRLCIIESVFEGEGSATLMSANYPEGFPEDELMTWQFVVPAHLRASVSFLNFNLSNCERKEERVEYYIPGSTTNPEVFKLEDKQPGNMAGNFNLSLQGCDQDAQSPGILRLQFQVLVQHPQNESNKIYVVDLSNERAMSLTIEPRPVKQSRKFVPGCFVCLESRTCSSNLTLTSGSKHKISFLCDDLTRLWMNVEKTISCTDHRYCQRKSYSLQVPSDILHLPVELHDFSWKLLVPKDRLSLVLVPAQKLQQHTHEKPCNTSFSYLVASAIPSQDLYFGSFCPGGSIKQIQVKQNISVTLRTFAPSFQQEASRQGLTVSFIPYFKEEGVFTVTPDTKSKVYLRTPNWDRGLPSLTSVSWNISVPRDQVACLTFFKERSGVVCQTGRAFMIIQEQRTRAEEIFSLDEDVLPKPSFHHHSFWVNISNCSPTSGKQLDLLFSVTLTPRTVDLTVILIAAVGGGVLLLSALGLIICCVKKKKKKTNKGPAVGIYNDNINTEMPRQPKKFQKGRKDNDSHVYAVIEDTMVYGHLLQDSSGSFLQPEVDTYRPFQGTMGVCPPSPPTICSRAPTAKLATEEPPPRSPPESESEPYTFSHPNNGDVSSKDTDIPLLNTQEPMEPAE

CD142 [5] = target: T1, CD142; test: as above
CD73 [6] = target: T3, CD73; test: antibody used for staining of human pancreatic cancer cells (flow cytometry, immunohistochemistry; Example 1); told in words only

binding result (CD73 [3]): binds
B8: CD73 specific CAR sequence VL-linker-VH (scFv)
scFv: DIVMTQSHKFMSTSVGDRVSITCKASQDVGSAVAWYQQKPGQSPKLLIYWASTRHTGVPDRFTGSGSGTDFTLTISNVQSEDLADYFCQQYSSYPLTFGAGTKLELKGGGGSGGGGSGGGGSEVQLQQSGAELVKPGASVKLSCTASGFNIKDTYIHWVKQRPEQGLEWIGRIDPATGNTEYDPKFQGKATITADTSSNTAYLHLSSLTSEDTAVYYCARGYYGSSYPPWFAYWGQGTLVTVSA
notes: not shown: hinge, transmembrane and signalling domains of the CAR

binding result (CD142 [5]): binds
B9: CD142 specific CAR sequence VH-linker-VL (scFv)
scFv: QVQLKQSGPGLVQPSQSLSITCTVSGFSLSNYGVHWVRQSPGKGLEWLGVIWSGGSTDYNVAFISRLIITKDNSKSQVFLKMNSLQADDTAIYFCARTTGSVFNAMDHWGQGTSVTVSSGGGGSGGGGSGGGGSQIVLTQSPALMSASPGEKVTMTCSASSSVTYMYWYQQKPRSSPKPWIYLTSNLASGVPARFSGSGSGTSYSLTISSVEAEDAATYYCQQWSSNPLTFGAGTKLELK
notes: as for B8

binding result (CD73 [6]): binds
B10: CD73 specific antibody (antibody, V domains shown)
VH: EVQLQQSGAELVKPGASVKLSCTASGFNIKDTYIHWVKQRPEQGLEWIGRIDPATGNTEYDPKFQGKATITADTSSNTAYLHLSSLTSEDTAVYYCARGYYGSSYPPWFAYWGQGTLVTVSA
VL: DIVMTQSHKFMSTSVGDRVSITCKASQDVGSAVAWYQQKPGQSPKLLIYWASTRHTGVPDRFTGSGSGTDFTLTISNVQSEDLADYFCQQYSSYPLTFGAGTKLELK
notes: also called CD73 VH

binding result (CD142 [5]): binds
B11: CD142 specific CAR sequence VL-linker-VH (scFv)
scFv: QIVLTQSPALMSASPGEKVTMTCSASSSVTYMYWYQQKPRSSPKPWIYLTSNLASGVPARFSGSGSGTSYSLTISSVEAEDAATYYCQQWSSNPLTFGAGTKLELKGGGGSGGGGSGGGGSQVQLKQSGPGLVQPSQSLSITCTVSGFSLSNYGVHWVRQSPGKGLEWLGVIWSGGSTDYNVAFISRLIITKDNSKSQVFLKMNSLQADDTAIYFCARTTGSVFNAMDHWGQGTSVTVSS
notes: as for B8

binding result (CD318): binds
B12: CD318 specific CAR sequence VH-linker-VL (scFv)
scFv: EVQLQQSGAELVRPGALVKLSCKASGFNIKDYYIHWVKQRPEQGLEWIGWIDPENGHTIYDPKFQGKASITADTSSNTAYLQLSSLTSEDTAVYYCARLTGTTYAMDYWGQGTSVTVSSGGGGSGGGGSGGGGSDIVMTQSHKFMSTSVGDRVSITCKASQDVSTAVAWYQQKSGQSPKLLIYWASTRHTGVPDRFTGSGSGTDYTLTISSVQAEDLALYYCQQHYSTPYTFGGGTKLEIK
notes: as for B8

binding result (CD66c [4]): binds
B13: CD66c specific CAR sequence VH-linker-VL (scFv)
scFv: QVTLKESGPGILKPSQTLSLTCSFSGFSLSTSGMGVGWIRQPSGKSLEWLAHIWWNDERYYNPSLKNQLTISKDTSRNQVFLKITSVDTADTATYYCARSPRGYFDYWGHGTTLTVSSGGGGSGGGGSGGGGSDIVMTQSQKFMSTSVGDRVSVTCKASQNVVTNVAWYQQTPGQSPKALIYSASYRYSGVPDRFSGSGSGTDFTLTISNVQSGDLAEYFCQQYNSYPLTFGAGTKLELK
notes: as for B8

The remaining lines, values behind:

B1: CD142 specific antibody (antibody, V domains shown)
VH: QVQLKQSGPGLVQPSQSLSITCTVSGFSLSNYGVHWVRQSPGKGLEWLGVIWSGGSTDYNVAFISRLIITKDNSKSQVFLKMNSLQADDTAIYFCARTTGSVFNAMDHWGQGTSVTVSS
VL: QIVLTQSPALMSASPGEKVTMTCSASSSVTYMYWYQQKPRSSPKPWIYLTSNLASGVPARFSGSGSGTSYSLTISSVEAEDAATYYCQQWSSNPLTFGAGTKLELK
notes: also called CD142 VH
binding result (CD142 [1]): binds

B2: CD66c specific antibody (antibody, V domains shown)
VH: QVTLKESGPGILKPSQTLSLTCSFSGFSLSTSGMGVGWIRQPSGKSLEWLAHIWWNDERYYNPSLKNQLTISKDTSRNQVFLKITSVDTADTATYYCARSPRGYFDYWGHGTTLTVSS
VL: DIVMTQSQKFMSTSVGDRVSVTCKASQNVVTNVAWYQQTPGQSPKALIYSASYRYSGVPDRFSGSGSGTDFTLTISNVQSGDLAEYFCQQYNSYPLTFGAGTKLELK
notes: also called CD66c VH
binding result (CD66c [2]): binds

B3: CD73 specific CAR sequence VH-linker-VL (scFv)
scFv: EVQLQQSGAELVKPGASVKLSCTASGFNIKDTYIHWVKQRPEQGLEWIGRIDPATGNTEYDPKFQGKATITADTSSNTAYLHLSSLTSEDTAVYYCARGYYGSSYPPWFAYWGQGTLVTVSAGGGGSGGGGSGGGGSDIVMTQSHKFMSTSVGDRVSITCKASQDVGSAVAWYQQKPGQSPKLLIYWASTRHTGVPDRFTGSGSGTDFTLTISNVQSEDLADYFCQQYSSYPLTFGAGTKLELK
notes: as for B8
binding result (CD73 [3]): binds

B4: CD66c specific CAR sequence VL-linker-VH (scFv)
scFv: DIVMTQSQKFMSTSVGDRVSVTCKASQNVVTNVAWYQQTPGQSPKALIYSASYRYSGVPDRFSGSGSGTDFTLTISNVQSGDLAEYFCQQYNSYPLTFGAGTKLELKGGGGSGGGGSGGGGSQVTLKESGPGILKPSQTLSLTCSFSGFSLSTSGMGVGWIRQPSGKSLEWLAHIWWNDERYYNPSLKNQLTISKDTSRNQVFLKITSVDTADTATYYCARSPRGYFDYWGHGTTLTVSS
notes: as for B8
binding result (CD66c [4]): binds

B5: TSPAN8 specific CAR sequence VL-linker-VH (scFv)
scFv: DIQMTQSPASLSASLEEIVTITCQASQDIGNWLSWYQQKPGKSPQLLIYGATSLADGVPSRFSGSRSGTQYSLKISRLQVEDIRIYYCLQAYSAPWTFGGGTKLELKGGGGSGGGGSGGGGSEVKLLESGGGLVQPGGSMRLSCAASGFTFTDFYMNWIRQPAGKAPEWLGFIRNKASGYTTEYNPSVKGRFTISRDNTQNMLYLQMNTLRAEDTATYYCARAHSYYGYDYFDYWGQGVMVTVSS
notes: as for B8
binding result (TSPAN8): binds

B6: TSPAN8 specific CAR sequence VH-linker-VL (scFv)
scFv: EVKLLESGGGLVQPGGSMRLSCAASGFTFTDFYMNWIRQPAGKAPEWLGFIRNKASGYTTEYNPSVKGRFTISRDNTQNMLYLQMNTLRAEDTATYYCARAHSYYGYDYFDYWGQGVMVTVSSGGGGSGGGGSGGGGSDIQMTQSPASLSASLEEIVTITCQASQDIGNWLSWYQQKPGKSPQLLIYGATSLADGVPSRFSGSRSGTQYSLKISRLQVEDIRIYYCLQAYSAPWTFGGGTKLELK
notes: as for B8
binding result (TSPAN8): binds

B7: CD318 specific CAR sequence VL-linker-VH (scFv)
scFv: DIVMTQSHKFMSTSVGDRVSITCKASQDVSTAVAWYQQKSGQSPKLLIYWASTRHTGVPDRFTGSGSGTDYTLTISSVQAEDLALYYCQQHYSTPYTFGGGTKLEIKGGGGSGGGGSGGGGSEVQLQQSGAELVRPGALVKLSCKASGFNIKDYYIHWVKQRPEQGLEWIGWIDPENGHTIYDPKFQGKASITADTSSNTAYLQLSSLTSEDTAVYYCARLTGTTYAMDYWGQGTSVTVSS
notes: as for B8
binding result (CD318): binds

— patent publication US20200282035A1 (MILTENYI BIOTEC B V, published 2020)
